Data reported in US20240398906A1 (YEDA RESEARCH AND DEVELOPMENT, published 2024).
“And” between values parts separate entries of the source, which are not always exact repeats. Equal values may be shown once.

T1: recombinant catalytic domain of human LOX (169-417) (human, UniProt P28300 169-417)
T1 construct: also called LOX-catalytic domain; recombinant LOX
T1 sequence: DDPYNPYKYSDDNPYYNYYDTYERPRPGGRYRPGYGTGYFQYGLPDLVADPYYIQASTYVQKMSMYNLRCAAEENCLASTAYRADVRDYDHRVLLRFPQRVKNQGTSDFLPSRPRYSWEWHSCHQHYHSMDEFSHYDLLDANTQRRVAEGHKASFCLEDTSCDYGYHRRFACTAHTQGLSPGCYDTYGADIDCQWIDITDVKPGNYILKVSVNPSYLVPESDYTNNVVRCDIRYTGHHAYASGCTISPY

B1: AS1 (glycosylated LOX-PP fused to human IgG1 Fc) (Fc fusion)
chain: APPAAGQQQPPREPPAAPGAWRQQIQWENNGQVFSLLSLGSQYQPQRRRDPGAAVPGAANASAQQPRTPILLIRDNRTAAARTRTAGSSGVTAGRPRPTARHWFQAGYSTSRAREAGASRAENQTAPGEVPALSNLRPPSRVDGMVG
modifications: N-glycosylated on N81, N97 and N144 (precursor numbering; positions 60, 76 and 123 of the piece). Disulfide-linked dimer through the Fc hinge.
notes: also called AS1 decoy; not shown: Human IgG1 Fc (hinge-CH2-CH3), its orientation relative to LOX-PP and any linker
B2: Fc-LPD (Fc fusion)
chain: APPAAGQQQPPREPPAAPGAWRQQIQWENNGQVFSLLSLGSQYQPQRRRDPGAAVPGAANASAQQPRTPILLIRDNRTAAARTRTAGSSGVTAGRPRPTARHWFQAGYSTSRAREAGASRAENQTAPGEVPALSNLRPPSRVDGMVG

Assays:
recombinant HSP70 = target: T2, recombinant HSP70 (UniProt P0DMV8 1-641, limits assumed); experiment: ELISA, plate coated with recombinant HSP70, detection with anti-human peroxidase antibody
T2 construct: Purified on a HisTrap column; also called heat shock protein 70
Experimental: (§1) ELISA binding assay: A ninety-six-well plate (Nunc) was coated with LOX-catalytic domain, HSP70 or BSA at 10 μg/ml. After blocking with 2% BSA in PBS, the plate was incubated with the antibodies for 1 h at 37° C. Bound antibodies were detected by peroxidase-conjugated antibody goat anti-human (Jackson ImmunoResearch). EC₅₀ was calculated with GraphPad Prism from […] curve fitting analysis.

[1] = target: T1, recombinant catalytic domain of human …; experiment: ELISA, plate coated with LOX catalytic domain, detection with anti-human peroxidase antibody
Experimental: as §1

[2] = target: T1, recombinant catalytic domain of human …; experiment: binding affinity against LOX; ELISA according to paragraph 88
[3] = target: T1, recombinant catalytic domain of human …; experiment: dissociation constant against LOX; microscale thermophoresis according to paragraph 89

T2 sequence (P0DMV8 whole entry): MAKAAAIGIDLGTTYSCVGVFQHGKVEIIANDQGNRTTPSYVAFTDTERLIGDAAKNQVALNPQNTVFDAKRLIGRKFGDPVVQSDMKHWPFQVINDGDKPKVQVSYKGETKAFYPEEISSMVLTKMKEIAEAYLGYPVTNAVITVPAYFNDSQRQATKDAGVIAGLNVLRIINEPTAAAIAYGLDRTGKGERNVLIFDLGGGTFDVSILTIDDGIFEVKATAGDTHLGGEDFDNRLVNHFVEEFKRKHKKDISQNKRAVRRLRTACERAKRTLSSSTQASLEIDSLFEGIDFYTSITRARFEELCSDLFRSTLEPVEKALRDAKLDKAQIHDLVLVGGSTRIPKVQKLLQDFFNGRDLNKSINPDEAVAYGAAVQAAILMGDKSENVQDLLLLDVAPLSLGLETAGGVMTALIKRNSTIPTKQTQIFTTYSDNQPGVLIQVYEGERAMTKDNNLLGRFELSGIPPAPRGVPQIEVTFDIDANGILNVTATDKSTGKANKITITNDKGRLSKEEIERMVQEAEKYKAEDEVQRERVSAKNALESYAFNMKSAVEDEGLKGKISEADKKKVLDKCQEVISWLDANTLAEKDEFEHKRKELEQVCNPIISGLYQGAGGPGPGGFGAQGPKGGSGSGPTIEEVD

Binder	EC50 (recombinant HSP70) [nM]	EC50 [1] [nM]	EC50 [2]	Kd [3] [nM]
B1	41	43		
B2			40 nM and 43 nM	32
